Results taken from US20240309093A1 (MINGHUI PHARMACEUTICAL HANGZHOU, published 2024).

Assays:
[1] = target: T1, human PD-1 on HEK293 cells overexpressing human PD-1 (human, UniProt Q15116 25-288); test: competitive flow cytometry on HEK293 cells overexpressing human PD-1; 1.0 µg/mL biotinylated human PD-L1 as competitor, PE-SA
T1 construct: whole, on cells; also called HEK293/hPD1; hPD-1
Description: The cells were harvested and washed once with test buffer. […] The data were analyzed using FCS Express 6 Plus and GraphPad Prism 5 software.

[2] = target: T2, recombinant human PD-1 (C-Fc & C-Avi & C-6×His) (human, UniProt Q15116 25-167); test: competitive ELISA; PD-L1 (C-Fc) coated, 0.5 µg/mL PD-1 (C-Fc & C-Avi & C-6×His), streptavidin-HRP
T2 construct: not shown: C-terminal Fc, Avi tag and 6×His tag
Description: The plates were blocked with 1% casein. […] The plates were washed with PBST between incubations. Horseradish peroxidase-labelled streptavidin (1:10000) was used for detection, and Graphpad Prism software was used to fit the curve and calculate the EC₅₀ value, with the results shown in Table 3.

[3] = target: T3, recombinant human PD-1-his protein (human, UniProt Q15116 25-167); test: SPR (Biacore 8K); PD-1-his amine-coupled to CM5, 1:1 Langmuir fit
T3 construct: also called hPD-1-his; not shown: his tag
Description: About 250RU of recombinant human PD-1-his protein was coupled to a CM5 chip at 25° C. using an amine coupling kit (GE Healthcare, Cat No. BR100050) according to standard amine coupling procedure. […] (five concentrations were detected). The binding time was 120 s, and the dissociation time was 600 s. The curve was fitted with 1:1 Langmuir binding model using Biacore®8K analysis software (BIAevaluation) to determine the kinetic constants thereof, such as, association rate constant, dissociation rate constant, equilibrium dissociation constant, etc.

[4] = target: T1, human PD-1 on HEK293 cells …; test: flow cytometry on HEK293 cells overexpressing human PD-1; PE-anti-human IgG
Description: HEK293 cells overexpressing the human PD-1 were cultured in a DMEM medium containing 10% FBS in a CO₂ incubator (37° C., 5% CO₂). The cells were harvested and washed once with test buffer. Cells were counted and detected for viability. […] The cells were washed with washing buffer, and 100 μL of PE-anti-human IgG was added in accordance with the instruction and incubated in dark at 4° C. for 1 hr. The cells were washed three times with washing buffer, and individual samples were re-suspended in 200 μL of PBS and detected by flow cytometer. The data were analyzed using FCS Express 6 Plus and GraphPad Prism 5 software.

[5] = target: T3, recombinant human PD-1-his protein; test: ELISA (first round of humanization); PD-1-his coated 2 µg/mL, anti-human IgG Fc-HRP
Description: 96-well ELISA plates were coated with 2 μg/mL of recombinant human PD-1-his antigen protein at 30 μL/well at 4° C. overnight. The plates were washed three times with PBST. 5% PBS-Milk was added and incubated at room temperature for 2 h. The plates were washed three times with PBST. All the nanobody-Fc fusion proteins were subject to 3-fold gradient dilutions with an initial concentration of 10 μg/mL, added into each well at 30 μL/well, and incubated at room temperature for 1 hr. The plates were washed three times with PBST. The secondary antibody Goat-Anti-Human-IgG-Fc-HRP (purchased from Sigma) was diluted at 1:8000, added into each well at 30 μL/well, and incubated at room temperature for 50 min. The plates were washed three times with PBST. TMB (purchased from SurModics) was added into each well at 30 μL/well and developed at room temperature in dark for 1 min to 5 min. 2 M hydrochloric acid was added at 30 μL/well to stop the reaction. The OD450 absorbance value was read by a microplate reader.

[6] = target: T4, recombinant mouse PD-1-his protein (mouse, UniProt Q02242 25-167, limits assumed); test: ELISA; PD-1-his coated 2 µg/mL, anti-human IgG-HRP
T4 construct: not shown: his tag
T4 sequence (looked up): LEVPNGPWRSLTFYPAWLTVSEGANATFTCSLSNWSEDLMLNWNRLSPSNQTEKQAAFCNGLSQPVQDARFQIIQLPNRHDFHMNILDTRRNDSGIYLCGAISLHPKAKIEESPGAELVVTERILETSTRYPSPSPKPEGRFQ
Description: Ninety-six-well Greiner plates were coated with 2 μg/mL of recombinant human PD-1-his protein, recombinant monkey PD-1-his protein and recombinant mouse PD-1-his protein at 4° C. overnight. The next day, the plates were blocked with 1% casein. […] Then, the plates were washed with PBST. Anti-human IgG-HRP (diluted in 1% casein at 1:5000) was added and incubated for 1 hr., and binding detection was performed.

T3 sequence (Q15116 25-167 limits assumed): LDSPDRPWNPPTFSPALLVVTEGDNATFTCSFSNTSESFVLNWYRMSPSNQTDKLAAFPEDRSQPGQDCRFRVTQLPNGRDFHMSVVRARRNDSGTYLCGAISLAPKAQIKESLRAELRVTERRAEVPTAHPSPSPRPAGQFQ
T1 sequence (Q15116 25-288): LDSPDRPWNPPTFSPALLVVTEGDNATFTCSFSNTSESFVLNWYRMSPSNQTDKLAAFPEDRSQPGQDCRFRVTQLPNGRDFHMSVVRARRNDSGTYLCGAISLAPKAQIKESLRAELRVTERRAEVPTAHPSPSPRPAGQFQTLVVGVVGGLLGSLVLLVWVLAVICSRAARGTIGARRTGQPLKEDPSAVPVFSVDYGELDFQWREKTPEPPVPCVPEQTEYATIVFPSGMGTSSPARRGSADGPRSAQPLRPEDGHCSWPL
T2 sequence (Q15116 25-167 limits assumed): as the sequence (Q15116 25-167 limits assumed) above

EC50 [1]: 0.549 µg/mL
EC50 [2]: 0.499 µg/mL
Kd [3]: 42.5 pM
koff [3]: 1.95e-05 s⁻¹
kon [3]: 460000 M⁻¹ s⁻¹
EC50 [4]: 0.245 µg/mL
EC50 [5]: 0.14 µg/mL
B1: MHPD1-A Fc (Fc fusion)
chain: QVQLVESGGGSVQVGGSLTLSCAASGSDPSIYAMGWFRQAPGKEHEFVAGIGWSAATTYYADSVKGRFGISRDNTKNTVALLMNSLKPEDTAIYYCAADLDHSGFDYWGQGTQVTVSS
notes: C-terminal of VHH directly connected to the N-terminal of the human Fc hinge region; also called nanobody-Fc fusion protein; fusion protein; not shown: human Fc fragment with hinge
binding result [6]: no binding (tested: 5 µg/mL and 1.67 µg/mL)
